Data reported in publication PMC11464180 (Immunity, 2024).

What was measured:
[1] = molecular target: T1, H1 mini-HA (#4900) (Designed from influenza A virus …, stabilised); assay: ELISA
[2] = molecular target: T1, H1 mini-HA (#4900); assay: BLI
[3] = molecular target: H1N1 A/Solomon Island/3/2006 HA (Influenza A virus A/Solomon …, UniProt A7Y8I1, strain); assay: BLI

B1: 013–10 3F02 IgG K56N mutant (antibody, V domains shown)
VH: QVQLVESGGGVAQPGRSLRLSCAASGFTFSTYGMHWVRQAPGKGLEWVAVISYDGSNRYYAEILKDRFTISRDNSKNTVYLQMNSLRTEDTAVYFCAKEGRPLIVSGTHFFQFYYGMDVWGQGTTVTVSS
VL: DIQMTQSPSSLSASVGDRVTISCRASQSIGTYLNWYQQKPGKAPNLLIYGTSTLKSGVPSRFSGSGSGTDFTLTIGSLQPEDFATYFCQQSFSPPLTFGRGTRLEIK
fold weakening of binding affinity against WT [1]: 10 fold

B2: 310–18A5 (antibody, V domains shown)
VH: QVQLMQSGTEVKKPGSSVRVSCKASGSTFNSDAISWVRQAPGQGLEWMGGILGMFRTVNYAQRFQGRVTITADELMSTAYMELSGLRFEDTAVYYCARGDGYKPNFLRYWGQGTLITVSS
VL: TLSLSPGERATLSCRASQSVSSTSLAWYQQKFGQAPRLLIYGASNRATGIPDRFSGSGSGTDFTLTISRLEPEDFAVYYCQQYGNSLTFGGGTKVEIK
Kd [2]: 1 nM
Kd [3]: 0.2 nM
